Experimental data reported in the Human Domainome abundance scans (Beltran et al. 2025).
± gives the uncertainty stated by the source.

test: abundance fitness (aPCA) (normalised: wild type 0, dead -1); higher = more abundant; growth selection in yeast, the domain comes from the species named; settings: Homo sapiens

**Q.** Which abundance fitness does the source give for “Lipoamide acyltransferase component of branched-chain alpha-keto acid dehydrogenase complex, mitochondrial V177P, P11182” here?
**A.** -0.64 ± 0.08

**Q.** Which abundance fitness does the source give for “Lipoamide acyltransferase component of branched-chain alpha-keto acid dehydrogenase complex, mitochondrial V177R, P11182” here?
**A.** -0.802 ± 0.043

**Q.** Which abundance fitness does the source give for “Lipoamide acyltransferase component of branched-chain alpha-keto acid dehydrogenase complex, mitochondrial V177S, P11182” here?
**A.** -0.255 ± 0.045

**Q.** For “Lipoamide acyltransferase component of branched-chain alpha-keto acid dehydrogenase complex, mitochondrial V177T, P11182”, which abundance fitness is on record?
**A.** -0.401 ± 0.06

**Q.** For “Lipoamide acyltransferase component of branched-chain alpha-keto acid dehydrogenase complex, mitochondrial V177W, P11182”, which abundance fitness is on record?
**A.** -0.975 ± 0.14

**Q.** For “Lipoamide acyltransferase component of branched-chain alpha-keto acid dehydrogenase complex, mitochondrial V191A, P11182”, which abundance fitness is on record?
**A.** -0.52 ± 0.058

**Q.** For “Lipoamide acyltransferase component of branched-chain alpha-keto acid dehydrogenase complex, mitochondrial V191C, P11182”, which abundance fitness is on record?
**A.** -0.267 ± 0.053

**Q.** For “Lipoamide acyltransferase component of branched-chain alpha-keto acid dehydrogenase complex, mitochondrial V191D, P11182”, which abundance fitness is on record?
**A.** -0.522 ± 0.092

**Q.** For “Lipoamide acyltransferase component of branched-chain alpha-keto acid dehydrogenase complex, mitochondrial V191E, P11182”, which abundance fitness is on record?
**A.** -0.562 ± 0.043

**Q.** For “Lipoamide acyltransferase component of branched-chain alpha-keto acid dehydrogenase complex, mitochondrial V191F, P11182”, which abundance fitness is on record?
**A.** -0.456 ± 0.054

**Q.** For “Lipoamide acyltransferase component of branched-chain alpha-keto acid dehydrogenase complex, mitochondrial V191H, P11182”, which abundance fitness is on record?
**A.** -0.619 ± 0.12

**Q.** For “Lipoamide acyltransferase component of branched-chain alpha-keto acid dehydrogenase complex, mitochondrial V191K, P11182”, which abundance fitness is on record?
**A.** -0.653 ± 0.045

**Q.** With “Lipoamide acyltransferase component of branched-chain alpha-keto acid dehydrogenase complex, mitochondrial V191L, P11182” as the substance, how does the abundance fitness read?
**A.** -0.117 ± 0.047

**Q.** For “Lipoamide acyltransferase component of branched-chain alpha-keto acid dehydrogenase complex, mitochondrial V191M, P11182”, which abundance fitness is on record?
**A.** -0.075 ± 0.051

**Q.** With “Lipoamide acyltransferase component of branched-chain alpha-keto acid dehydrogenase complex, mitochondrial V191N, P11182” as the substance, how does the abundance fitness read?
**A.** -0.699 ± 0.23

**Q.** Which abundance fitness does the source give for “Lipoamide acyltransferase component of branched-chain alpha-keto acid dehydrogenase complex, mitochondrial V191P, P11182” here?
**A.** -0.482 ± 0.044

**Q.** With “Lipoamide acyltransferase component of branched-chain alpha-keto acid dehydrogenase complex, mitochondrial V191Q, P11182” as the substance, how does the abundance fitness read?
**A.** -0.632 ± 0.061

**Q.** With “Lipoamide acyltransferase component of branched-chain alpha-keto acid dehydrogenase complex, mitochondrial V191R, P11182” as the substance, how does the abundance fitness read?
**A.** -0.756 ± 0.045

**Q.** With “Lipoamide acyltransferase component of branched-chain alpha-keto acid dehydrogenase complex, mitochondrial V191S, P11182” as the substance, how does the abundance fitness read?
**A.** -0.593 ± 0.054
